Test results reported in PMC10397247.
Each block holds one binder with its values, some of them ahead of it.

Key:
[1] = target: T1, 4H346-bN; experiment: two-hybrid library CCNG1;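 note: natural log of median RNA to DNA barcode read ratio; higher means stronger binding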
T1 chain: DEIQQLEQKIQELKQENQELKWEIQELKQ

[2] = target: T2, 4H683-bN; experiment: two-hybrid library CCNG1;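 note: natural log of median RNA to DNA barcode read ratio; higher means stronger binding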
T2 chain: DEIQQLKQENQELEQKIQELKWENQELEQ

[3] = target: T3, 4H457-bN; experiment: two-hybrid library CCNG1;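 note: natural log of median RNA to DNA barcode read ratio; higher means stronger binding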
T3 chain: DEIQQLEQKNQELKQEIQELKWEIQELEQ

[4] = target: T4, 4H3057-bN; experiment: two-hybrid library CCNG1;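 note: natural log of median RNA to DNA barcode read ratio; higher means stronger binding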
T4 chain: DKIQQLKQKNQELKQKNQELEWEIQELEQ

[5] = target: T5, 4H2702-bN; experiment: two-hybrid library CCNG1;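 note: natural log of median RNA to DNA barcode read ratio; higher means stronger binding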
T5 chain: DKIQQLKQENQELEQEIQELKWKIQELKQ

[6] = target: T6, 4H780-bN; experiment: two-hybrid library CCNG1;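 note: natural log of median RNA to DNA barcode read ratio; higher means stronger binding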
T6 chain: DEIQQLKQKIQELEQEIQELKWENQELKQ

[7] = target: T7, 4H4073-bN; experiment: two-hybrid library CCNG1
T7 chain: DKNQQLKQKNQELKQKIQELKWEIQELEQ

[8] = target: T8, 4H575-bN; experiment: two-hybrid library CCNG1
T8 chain: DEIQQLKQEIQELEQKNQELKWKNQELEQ

[9] = target: T9, 4H2673-bN; experiment: two-hybrid library CCNG1
T9 chain: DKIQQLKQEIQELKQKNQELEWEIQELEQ

[10] = target: T10, 4H797-bN; experiment: two-hybrid library CCNG1
T10 chain: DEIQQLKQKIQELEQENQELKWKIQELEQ

[11] = target: T11, 4H968-bN; experiment: two-hybrid library CCNG1
T11 chain: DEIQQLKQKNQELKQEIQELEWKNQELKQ

[12] = target: T12, 4H3427-bN; experiment: two-hybrid library CCNG1
T12 chain: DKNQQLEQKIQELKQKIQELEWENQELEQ

[13] = target: T13, 4H3112-bN; experiment: two-hybrid library CCNG1
T13 chain: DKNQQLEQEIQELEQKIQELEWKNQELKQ

[14] = target: T14, 4H3010-bN; experiment: two-hybrid library CCNG1
T14 chain: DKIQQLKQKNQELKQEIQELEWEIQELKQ

[15] = target: T15, 4H918-bN; experiment: two-hybrid library CCNG1
T15 chain: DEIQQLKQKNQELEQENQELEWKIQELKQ

[16] = target: T16, 4H754-bN; experiment: two-hybrid library CCNG1
T16 chain: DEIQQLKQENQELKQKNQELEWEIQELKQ

[17] = target: T17, 4H3381-bH; experiment: two-hybrid library CCNG1
T17 chain: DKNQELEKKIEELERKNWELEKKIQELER

[18] = target: T18, 4H953-bN; experiment: two-hybrid library CCNG1
T18 chain: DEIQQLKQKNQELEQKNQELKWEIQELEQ

[19] = target: T19, 4H855-bN; experiment: two-hybrid library CCNG1
T19 chain: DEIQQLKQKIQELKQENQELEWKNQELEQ

[20] = target: T20, 4H3926-bN; experiment: two-hybrid library CCNG1
T20 chain: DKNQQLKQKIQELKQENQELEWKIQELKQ

[21] = target: T21, P6mSN; experiment: two-hybrid library CCNG1
T21 chain: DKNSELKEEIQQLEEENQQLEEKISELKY

[22] = target: T22, P9mSN; experiment: two-hybrid library CCNG1
T22 chain: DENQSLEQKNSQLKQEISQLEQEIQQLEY

[23] = target: T23, P8mSN; experiment: two-hybrid library CCNG1
T23 chain: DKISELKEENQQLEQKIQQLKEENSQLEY

[24] = target: T24, P7mSN; experiment: two-hybrid library CCNG1
T24 chain: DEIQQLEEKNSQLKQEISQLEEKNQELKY

[25] = target: T25, 4H2948-AA; experiment: two-hybrid library CCmax; settings: mean of both orientations
T25 chain: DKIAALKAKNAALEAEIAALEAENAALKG

[26] = target: T26, 4H2991-AA; experiment: two-hybrid library CCmax; settings: mean of both orientations
T26 chain: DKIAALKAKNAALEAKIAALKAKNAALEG

[27] = target: T27, 4H1854-AA; experiment: two-hybrid library CCmax; settings: mean of both orientations
T27 chain: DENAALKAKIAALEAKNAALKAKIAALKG

[28] = target: T28, 4H656-AA; experiment: two-hybrid library CCmax; settings: mean of both orientations
T28 chain: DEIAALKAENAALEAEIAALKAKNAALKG

[29] = target: T29, 4H2283-AA; experiment: two-hybrid library CCmax; settings: mean of both orientations
T29 chain: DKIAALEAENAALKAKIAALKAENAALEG

[30] = target: T30, 4H2713-AA; experiment: two-hybrid library CCmax; settings: mean of both orientations
T30 chain: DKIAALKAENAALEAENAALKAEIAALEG

[31] = target: T31, 4H3446-AA; experiment: two-hybrid library CCmax; settings: mean of both orientations
T31 chain: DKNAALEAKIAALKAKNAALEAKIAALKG

[32] = target: T32, 4H3666-AA; experiment: two-hybrid library CCmax; settings: mean of both orientations
T32 chain: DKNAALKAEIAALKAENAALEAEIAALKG

[33] = target: T33, 4H3029-AA; experiment: two-hybrid library CCmax; settings: mean of both orientations
T33 chain: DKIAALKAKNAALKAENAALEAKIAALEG

[34] = target: T34, 4H2248-AA; experiment: two-hybrid library CCmax; settings: mean of both orientations
T34 chain: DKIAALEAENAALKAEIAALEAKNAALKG

[35] = target: T35, 4H675-AA; experiment: two-hybrid library CCmax; settings: mean of both orientations
T35 chain: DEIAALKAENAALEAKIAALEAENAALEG

[36] = target: T36, 4H2742-AA; experiment: two-hybrid library CCmax; settings: mean of both orientations
T36 chain: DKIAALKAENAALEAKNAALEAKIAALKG

[37] = target: T37, 4H1809-AA; experiment: two-hybrid library CCmax
T37 chain: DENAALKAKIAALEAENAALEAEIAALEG

[38] = target: T38, 4H3709-AA; experiment: two-hybrid library CCmax; settings: mean of both orientations
T38 chain: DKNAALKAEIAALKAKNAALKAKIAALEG

[39] = target: T39, 4H391-AA; experiment: two-hybrid library CCmax; settings: mean of both orientations
T39 chain: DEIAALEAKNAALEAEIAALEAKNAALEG

[40] = target: T40, 4H971-AA; experiment: two-hybrid library CCmax; settings: mean of both orientations
T40 chain: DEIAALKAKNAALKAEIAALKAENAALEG

[41] = target: T41, 4H189-AA; experiment: two-hybrid library CCmax; settings: mean of both orientations
T41 chain: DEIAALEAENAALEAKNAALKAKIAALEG

[42] = target: T42, 4H497-AA; experiment: two-hybrid library CCmax; settings: mean of both orientations
T42 chain: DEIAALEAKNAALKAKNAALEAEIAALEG

[43] = target: T43, 4H3121-AA; experiment: two-hybrid library CCmax; settings: mean of both orientations
T43 chain: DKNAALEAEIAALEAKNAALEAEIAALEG

[44] = target: T44, 4H3920-AA; experiment: two-hybrid library CCmax; settings: mean of both orientations
T44 chain: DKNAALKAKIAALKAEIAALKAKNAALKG

[45] = target: T45, 4H3939-AA; experiment: two-hybrid library CCmax; settings: mean of both orientations
T45 chain: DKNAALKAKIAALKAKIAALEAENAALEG

[46] = target: T46, 4H3628-AA; experiment: two-hybrid library CCmax; settings: mean of both orientations
T46 chain: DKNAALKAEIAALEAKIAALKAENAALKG

[47] = target: T47, 4H428-AA; experiment: two-hybrid library CCmax; settings: mean of both orientations
T47 chain: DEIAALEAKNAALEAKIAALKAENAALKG

[48] = target: T48, 4H3417-AA; experiment: two-hybrid library CCmax; settings: mean of both orientations
T48 chain: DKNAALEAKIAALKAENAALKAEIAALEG

[49] = target: T49, 4H3066-AA; experiment: two-hybrid library CCmax; settings: mean of both orientations
T49 chain: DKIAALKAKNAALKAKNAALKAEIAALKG

[50] = target: T50, 4H478-AA; experiment: two-hybrid library CCmax; settings: mean of both orientations
T50 chain: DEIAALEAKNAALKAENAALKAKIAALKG

[51] = target: T51, 4H3591-AA; experiment: two-hybrid library CCmax; settings: mean of both orientations
T51 chain: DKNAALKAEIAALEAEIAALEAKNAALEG

[52] = target: T52, 4H3102-AA; experiment: two-hybrid library CCmax; settings: mean of both orientations
T52 chain: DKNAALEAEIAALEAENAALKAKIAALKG

interaction score [1]: -0.543
interaction score [2]: -0.954
interaction score [3]: -1.88
interaction score [4]: -0.47
interaction score [5]: -0.755
interaction score [6]: -1.43
interaction score [7]: -1.63
interaction score [8]: -1.53
interaction score [9]: 0.657
interaction score [10]: -0.839
interaction score [11]: -0.538
interaction score [12]: -1.55
interaction score [13]: -0.658
interaction score [14]: 1.39
interaction score [15]: -1.57
interaction score [16]: -1.07
interaction score [17]: -0.468
interaction score [18]: -1.21
interaction score [19]: -1.2
interaction score [20]: -0.806
B1: 4H2673-bN (peptide)
chain: DKIQQLKQEIQELKQKNQELEWEIQELEQ

interaction score [21]: 0.276
interaction score [22]: -0.248
interaction score [23]: -1.19
interaction score [24]: -0.951
B2: P6mSN (peptide)
chain: DKNSELKEEIQQLEEENQQLEEKISELKY

interaction score [25]: -1.16
interaction score [26]: -0.235
interaction score [27]: 2.32
interaction score [28]: -1.1
interaction score [29]: 1.16
interaction score [30]: -1.63
interaction score [31]: 1.42
interaction score [32]: -1.2
interaction score [33]: -2.28
interaction score [34]: -0.294
interaction score [35]: -1.74
interaction score [36]: -1.29
interaction score [37]: -0.349
interaction score [38]: 1.51
interaction score [39]: -1.47
interaction score [40]: 0.362
interaction score [41]: -0.354
interaction score [42]: -1.51
interaction score [43]: -1.18
interaction score [44]: -0.86
interaction score [45]: -1.45
interaction score [46]: -1.29
interaction score [47]: -0.837
interaction score [48]: -0.579
interaction score [49]: 0.194
interaction score [50]: 0.898
interaction score [51]: -1.94
interaction score [52]: 2.27
B3: 4H1809-AA (peptide)
chain: DENAALKAKIAALEAENAALEAEIAALEG
